Test results: PMC4648099

Tests used:
[1] = biological target: T1, thrombin (alpha-thrombin) (UniProt P00734;P00734 328-363;364-622); experiment: competition (FAM fluorescence displacement); fit of pair TBA-FAM/TBA; 100 mM KCl; Fluorescence assays: 10 mM sodium cacodylate pH 7.2, 100 mM KCl, 20 °C, 20 nM FAM-aptamer (100 nM thrombin in displacement); EMSA: 1xTBE pH 8.3, 100 mM KCl (ann)
[2] = biological target: T1, thrombin (alpha-thrombin); experiment: competition (FAM fluorescence displacement); TBA-FAM Kd fixed at 15 nM; 100 mM KCl; Fluorescence assays: 10 mM sodium cacodylate pH 7.2, 100 mM KCl, 20 °C, 20 nM FAM-aptamer (100 nM thrombin in displacement); EMSA: 1xTBE pH 8.3, 100 mM KCl (ann)
[3] = biological target: T1, thrombin (alpha-thrombin); experiment: competition (FAM fluorescence displacement); fit of pair TBA-FAM/TBA-N8; 100 mM KCl; Fluorescence assays: 10 mM sodium cacodylate pH 7.2, 100 mM KCl, 20 °C, 20 nM FAM-aptamer (100 nM thrombin in displacement); EMSA: 1xTBE pH 8.3, 100 mM KCl (ann)

Binder | Kd [1] | Kd [2] | Kd [3]
GGTTGGTGTGGTTGG (structured_DNA) [TBA] | 15.8 nM | 23.7 nM | 
GGTTGGTGTGGTTGG (structured_DNA, 3' hexaethyleneglycol linker) [TBA-FAM] | 11.3 nM |  | 18.3 nM
